Measured values reported in article PMC12098869, “An mRNA-display derived cyclic peptide scaffold reveals the substrate binding interactions of an N-terminal cysteine oxidase” (Nature Communications, 2025).
Changes are numbered by the printed parent chain. Names and notes keep the numbering of the source. Values joined by “and” are separate entries in the source; they are usually repeats but may differ in a detail not shown here. Identical values can stand only once. Each block holds one molecule with its values, some of them ahead of it. Where a SMILES comes first, the peptide text is derived from it. Bridges are numbered along the chain shown (N, C = ends). Where no end group is shown, it is not given here. [ ]: non-standard residue; d: D form.

How the values were obtained:
[1] = target: 2-aminoethanethiol dioxygenase (ADO), full-length human, N-terminally His-tagged and biotinylated (pQE80L-Navi-ADO) (human) (UniProt Q96SZ5); experiment: SPR; biotinylated ADO or ADO mutant immobilised on a Biotin CAP chip (~2500-3000 RU), substrate peptide injected; Biacore T200, 4 °C; 20 mM HEPES pH 7.5, 500 mM NaCl, 10 mM DTT, 0.1% tween-20; 50 µL/minute; multi-cycle or single-cycle mode not given; each cell is one of three independent measurements
[2] = target: ADO-D206N, N-terminally His-tagged and biotinylated (human) (UniProt Q96SZ5); experiment: as above
ADO-D206A = experiment: SPR binding of substrate peptides to ADO variant; design: species or system human
Source text: (§1) Having verified the accuracy of the substrate analogue-bound crystal structures using MD simulations, key active site residues were mutated to assess their impact on binding and activity using SPR and LCMS. They were chosen based on their proximity to the substrate moieties and their conservation across species, including plants, where NCOs are called plant cysteine oxidases (PCOs; Fig. 5)[9],[10]. Two representative substrates, RGS5_2-15 and IL32_2-15 (a synthetic peptide corresponding to the methionine excised N-terminus of IL32, residues 2–15), were tested to compare interactions with different amino acid sequences.
(§2) SPR measurements were made using a Biacore T200 (Cytiva) instrument and data were analysed using the Biacore Insight Evaluation Software. Biotinylated-ADO was immobilised on a Biotin CAP chip (Cytiva) with a target density of ∼2500–3000 RU and peptide/protein substrates were injected over the chip. Experiments were conducted at 4 °C using both multi-cycle (fit using the equilibrium steady state affinity 1:1 binding model) and single-cycle kinetics mode (fit using a 1:1 binding model). A buffer comprising 20 mM HEPES pH 7.5, 500 mM NaCl, 10 mM DTT, and 0.1% (v/v) tween-20 was used as the running buffer at a flow rate of 50 μL/minute.
Supplementary Figure 20. SPR analysis of ADO variants with RGS5 peptide. […]

ADO-I109A [3] = target: T1, ADO-I109A (Homo sapiens, UniProt Q96SZ5, I109A); experiment: SPR binding of substrate peptides to ADO variant
T1 construct: Full-length human ADO (Uniprot ID: Q96SZ5) was cloned; made in house; host or cells: E. coli Rosetta2(DE3)
T1 sequence (Q96SZ5 whole entry I109A): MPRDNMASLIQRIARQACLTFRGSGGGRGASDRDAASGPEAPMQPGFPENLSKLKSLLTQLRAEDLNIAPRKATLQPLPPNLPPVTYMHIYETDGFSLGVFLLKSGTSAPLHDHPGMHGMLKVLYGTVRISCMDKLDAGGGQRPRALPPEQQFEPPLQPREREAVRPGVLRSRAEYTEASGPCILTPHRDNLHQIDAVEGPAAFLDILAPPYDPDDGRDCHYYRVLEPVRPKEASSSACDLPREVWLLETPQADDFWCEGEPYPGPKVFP
Source text: as §1, §2
(§3) Supplementary Figure 20. SPR analysis of ADO variants with RGS5 peptide. (Left) Representative SPR sensorgram for the titration of RGS52-15 with amino acid substituted ADO. (Right) Fits of the equilibrium responses from the sensorgram in the left panels to a 1:1 binding model. The Kᴅ values are shown (Kᴅ given as the geometric mean of a minimum of three independent SPR measurements (n=3) with standard error). […] The […]
(§4) sensorgram is shown in red and the fit to the data is shown in black. The concentrations of RGS52-15 used in the titration are 25.6 nM, 64 nM, 160 nM, 400 nM, 1000 nM. The Kᴅ value is shown (Kᴅ given as the geometric mean of a minimum of three independent SPR measurements). Source data are provided as Source Data file.
(§5) (1 picture or pasted object on this page, not shown here)
(§6) Supplementary Figure 21. SPR analysis of ADO variants with IL32 peptide. (Left) Representative SPR sensorgram for the titration of IL322-15 with amino acid substituted ADO. (Right) Fits of the equilibrium responses from the sensorgram in the left […]
(§7) sensorgram is shown in red and the fit to the data is shown in black. The concentrations of IL322-15 used in the titration are 25.6 nM, 64 nM, 160 nM, 400 nM, 1000 nM. The Kᴅ value is shown (Kᴅ given as the geometric mean of a minimum of three independent

ADO-Y87F = target: T2, ADO-Y87F (Homo sapiens, UniProt Q96SZ5, Y87F); experiment: SPR binding of substrate peptides to ADO variant
T2 construct: Full-length human ADO (Uniprot ID: Q96SZ5) was cloned; made in house; host or cells: E. coli Rosetta2(DE3)
T2 sequence (Q96SZ5 whole entry Y87F): as the sequence (Q96SZ5 whole entry I109A) above, with Y87F, A109I counted along it
Source text: as §1, §2, §3, §4, §5, §6, §7

ADO-Y212A = target: T3, ADO-Y212A (Homo sapiens, UniProt Q96SZ5, Y212A); experiment: SPR binding of substrate peptides to ADO variant
T3 construct: Full-length human ADO (Uniprot ID: Q96SZ5) was cloned; made in house; host or cells: E. coli Rosetta2(DE3)
T3 sequence (Q96SZ5 whole entry Y212A): as the sequence (Q96SZ5 whole entry I109A) above, with A109I, Y212A counted along it
Source text: as §1, §2, §3, §4, §5, §6, §7

ADO-D206N = target: T4, ADO-D206N (Homo sapiens, UniProt Q96SZ5, D206N); experiment: SPR binding of substrate peptides (native and oxidised) to ADO variant; conditions: up to 100 μM
T4 construct: Full-length human ADO (Uniprot ID: Q96SZ5) was cloned; made in house; host or cells: E. coli Rosetta2(DE3)
T4 sequence (Q96SZ5 1-270 D206N): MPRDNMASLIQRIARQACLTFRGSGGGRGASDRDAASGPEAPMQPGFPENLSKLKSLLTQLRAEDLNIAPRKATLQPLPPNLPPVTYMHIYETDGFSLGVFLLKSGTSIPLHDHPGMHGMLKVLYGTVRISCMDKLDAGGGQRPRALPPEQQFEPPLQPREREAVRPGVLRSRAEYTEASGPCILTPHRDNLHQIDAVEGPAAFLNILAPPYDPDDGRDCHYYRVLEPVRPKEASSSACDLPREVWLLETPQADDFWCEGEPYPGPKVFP
Source text: as §1
ADO cannot bind oxidised peptide or protein sequences (i.e. those bearing Nt-Cys sulfinic acid/sulfinate)[36]. To explore whether ADO-D206 plays a role in product release through protonation or charge repulsion, the binding of oxidised RGS5_2-15 and IL32_2-15 to ADO-D206N was monitored by SPR (Supplementary Fig. 22). […] Given its position in the active site (and the fact that many ADO-D206 variants bind substrate), this implies that ADO-D206 contributes to ADO activity through an interaction with O2 during turnover.
SPR measurements were made using a Biacore T200 (Cytiva) instrument and data were analysed using the Biacore Insight Evaluation Software. […]

[4] = target: T5, 2-aminoethanethiol dioxygenase (ADO), full-length human, N-terminally His-tagged and biotinylated … (human, UniProt Q96SZ5 1-270, biotin (biotinylated during expression, 0.2 mM biotin added)); experiment: SPR; single-cycle kinetics (1:1 binding model); biotinylated ADO immobilised on a Biotin CAP chip (~2500-3000 RU), cyclic peptide injected; Biacore T200, 4 °C; 20 mM HEPES pH 7.5, 500 mM NaCl, 10 mM DTT, 0.1% tween-20; 50 µL/minute; each cell is one of three independent measurements; conditions: both partners purified
T5 construct: 2-aminoethanethiol dioxygenase (ADO), human, UniProt Q96SZ5, full length; Immobilised through its biotin on a Biotin CAP chip for SPR; also called wild type ADO; Biotinylated-ADO; source: E. coli Rosetta2(DE3), purified (Ni-NTA, SEC); not shown: biotinylation tag (from the vector pQE80L-Navi), N-terminal, kept
T5 sequence (looked up): T4 sequence (Q96SZ5 1-270 D206N) with N206D

[5] = target: 2-aminoethanethiol dioxygenase (ADO), wild type, biotinylated (pQE80L-Navi-ADO) (human); experiment: SPR; single-cycle kinetics (SCK), 1:1 binding model; biotinylated ADO or variant immobilised on a Biotin CAP chip, peptide injected at 25.6, 64, 160, 400, 1000 nM; 4 °C; 20 mM HEPES pH 7.5, 500 mM NaCl, 10 mM DTT, 0.1% (v/v) tween-20; 50 μL/minute
ADO-I109A [6] = target: T6, ADO-I109A (human, UniProt Q96SZ5 1-270, I109A, biotin); experiment: SPR; biotinylated ADO (wild type or mutant) immobilised on a Biotin CAP chip, substrate peptides injected; 4 °C; 20 mM HEPES pH 7.5, 500 mM NaCl, 10 mM DTT, 0.1% tween-20; multi-cycle or single-cycle mode not given; conditions: both partners purified
T6 construct: 2-aminoethanethiol dioxygenase (ADO), human, UniProt Q96SZ5, full length; Made by site-directed mutagenesis of the SPR construct; source: E. coli Rosetta2(DE3), purified (Ni-NTA, SEC); not shown: biotinylation tag (from the vector pQE80L-Navi), N-terminal, kept
T6 sequence (looked up): T4 sequence (Q96SZ5 1-270 D206N) with I109A, N206D

Kd [1]: 372 nM and 449 nM and 573 nM | Kd [2]: 68.4 nM and 73.3 nM and 67.5 nM
Molecule: IL32(2-15), synthetic peptide corresponding to the methionine excised N-terminus of IL32, residues 2-15 (from UniProt P24001 2-15)

binding to ADO-D206A (in words) (ADO-D206A): no binding | fold increase in KD relative to wild type ADO (ADO-I109A [3]): 2 fold | KD (ADO-Y87F; replicate 1): 339 nM | KD (ADO-Y87F; replicate 3): 339 nM
Molecule: CC(C)C[C@H](NC(=O)CNC(=O)[C@H](CCCCN)NC(=O)[C@@H](N)CS)C(=O)N[C@@H](C)C(=O)N[C@@H](C)C(=O)N[C@@H](CC(C)C)C(=O)N1CCC[C@H]1C(=O)N[C@@H](Cc1c[nH]cn1)C(=O)N[C@@H](CO)C(=O)N[C@@H](CS)C(=O)N[C@@H](CC(C)C)C(=O)N[C@@H](CCC(=O)O)C(=O)N[C@@H](CCCNC(=N)N)C(N)=O [14-mer RGS5] (H-CKGLAALPHSCLER-NH2; C-terminus assumed)

binding to ADO-D206A (in words) (ADO-D206A): no binding | fold increase in KD relative to wild type ADO (ADO-I109A [3]): 35 fold | KD (ADO-Y212A; replicate 2): 24700 nM | KD (ADO-Y212A; replicate 3): 24700 nM
Molecule: CSCC[C@H](NC(=O)[C@H](CC(=O)O)NC(=O)[C@H](CC(=O)O)NC(=O)[C@H](CO)NC(=O)[C@H](CC(C)C)NC(=O)[C@@H](NC(=O)[C@H](CCCCN)NC(=O)[C@@H]1CCCN1C(=O)[C@H](Cc1ccccc1)NC(=O)[C@@H](N)CS)C(C)C)C(=O)N[C@@H](CCCCN)C(=O)N[C@@H](CCCCN)C(=O)N[C@@H](CC(C)C)C(=O)N[C@@H](CCCCN)C(N)=O [14-mer IL32] (H-CFPKVLSDDMKKLK-NH2; C-terminus assumed)

binding of oxidised peptide to ADO-D206N (in words) (ADO-D206N): No association was observed
Molecule: oxidised IL32_2-15: IL32_2-15 bearing Nt-Cys sulfinic acid/sulfinate, obtained through pre-incubation with ADO ([Cys sulfinic acid]FPKVLSDDMKKLK)

Kd [1]: 609 nM and 637 nM and 675 nM | Kd [2]: 149 nM and 155 nM and 152 nM
Molecule: RGS5(2-15), synthetic peptide corresponding to the methionine excised N-terminus of RGS5, residues 2 to 15 (from UniProt O15539 2-15)

binding of oxidised peptide to ADO-D206N (in words) (ADO-D206N): No association was observed
Molecule: oxidised RGS5_2-15: RGS5_2-15 bearing Nt-Cys sulfinic acid/sulfinate, obtained through pre-incubation with ADO ([Cys sulfinic acid]KGLAALPHSCLER)

Kd [4]: 11 nM and 13.1 nM and 13.7 nM | Kd [5]: 13 nM
B1: CP6-L8K-Cys (peptide)
peptide: {CH2CO}-YIVKTFWK(Cys)GSHRQC
modifications: thioether N-14
notes: the substitution L8K is to be applied, Cys on the sidechain amine of K8; Branched peptide: the Cys is not in the main chain; source: synthetic peptide

Kd [4]: 17.2 nM and 20.6 nM and 26.8 nM | Kd [5]: 21 nM
B2: CP6-L8K-Ser (peptide)
peptide: {CH2CO}-YIVKTFWK(Ser)GSHRQC
modifications: thioether N-14
notes: the substitution L8K is to be applied, Ser on the sidechain amine of K8; Branched peptide: the Ser is not in the main chain; also called CP-L8K-Ser; source: synthetic peptide

fold increase in KD relative to wild type ADO (ADO-I109A [6]): 2 fold
B3: RGS5_(2-15), synthetic peptide corresponding to the methionine excised N-terminus of RGS5, residues 2 to 15 (peptide, UniProt O15539 2-15, looked up)
peptide: CKGLAALPHSCLER
notes: RGS5, human, residues 2 to 15 (methionine excised N-terminus); peptide synthesis is in the supplementary methods; source: synthetic peptide

fold increase in KD relative to wild type ADO (ADO-I109A [6]): 35 fold
B4: IL32_(2-15), synthetic peptide corresponding to the methionine excised N-terminus of IL32, residues 2-15 (peptide, UniProt P24001 2-15, looked up)
peptide: CFPKVLSDDMKKLK
notes: interleukin 32 (IL32), residues 2-15 (methionine excised N-terminus); peptide synthesis is in the supplementary methods; source: synthetic peptide
